{
  "source": "patent US20110239311",
  "proteins": {"B1": {"name": "recombinant PKCzeta (enzyme, UniProt Q05513 1-592, looked up, species assumed)", "Protein kinase C zeta type": "MPSRTGPKMEGSGGRVRLKAHYGGDIFITSVDAATTFEELCEEVRDMCRLHQQHPLTLKWVDSEGDPCTVSSQMELEEAFRLARQCRDEGLIIHVFPSTPEQPGLPCPGEDKSIYRRGARRWRKLYRANGHLFQAKRFNRRAYCGQCSERIWGLARQGYRCINCKLLVHKRCHGLVPLTCRKHMDSVMPSQEPPVDDKNEDADLPSEETDGIAYISSSRKHDSIKDDSEDLKPVIDGMDGIKISQGLGLQDFDLIRVIGRGSYAKVLLVRLKKNDQIYAMKVVKKELVHDDEDIDWVQTEKHVFEQASSNPFLVGLHSCFQTTSRLFLVIEYVNGGDLMFHMQRQRKLPEEHARFYAAEICIALNFLHERGIIYRDLKLDNVLLDADGHIKLTDYGMCKEGLGPGDTTSTFCGTPNYIAPEILRGEEYGFSVDWWALGVLMFEMMAGRSPFDIITDNPDMNTEDYLFQVILEKPIRIPRFLSVKASHVLKGFLNKDPKERLGCRPQTGFSDIKSHAFFRSIDWDLLEKKQALPPFQPQITDDYGLDNFDTQFTSEPVQLTPDDEDAIKRIDQSEFEGFEYINPLLLSTEESV"}},
  "system": "GST-NR2F6 fusion protein, wild-type, full-length (purified recombinant)",
  "sequence (chain, as listed by the source)": "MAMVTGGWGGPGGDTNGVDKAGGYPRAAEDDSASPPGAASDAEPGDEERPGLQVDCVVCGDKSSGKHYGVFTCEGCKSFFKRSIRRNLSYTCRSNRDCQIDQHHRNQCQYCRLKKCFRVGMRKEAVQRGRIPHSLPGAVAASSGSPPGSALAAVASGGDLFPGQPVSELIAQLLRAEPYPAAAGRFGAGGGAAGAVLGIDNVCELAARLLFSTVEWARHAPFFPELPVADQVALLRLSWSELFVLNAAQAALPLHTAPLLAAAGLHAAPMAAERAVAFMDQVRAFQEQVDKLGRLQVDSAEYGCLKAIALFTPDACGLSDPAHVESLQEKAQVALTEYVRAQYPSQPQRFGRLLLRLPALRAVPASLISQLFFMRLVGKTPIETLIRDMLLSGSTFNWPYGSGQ",
  "data": [
    {"protein": "B1", "values": [
      {"measurement": "in vitro protein kinase assay (32P incorporation into GST-NR2F6)", "result": "(but not PKCzeta or PKA) were able to phosphorylate recombinant NR2F6 in vitro"}
    ]}
  ]
}
